Laboratory results: the supplement of paper PMC11316812
± gives the standard deviation of the averaged measurements.

How the values were obtained:
hTERT-HMEC = experiment: percentage of EdU-negative (G0-arrested) nuclei per well, 72 h; higher = more G0 arrest; conditions: reference: sequence is the full UniProt precursor, the tested protein was the secreted form or ectodomain
MCF7 = experiment: as above; conditions: reference: sequence is the full UniProt precursor, the tested protein was the secreted form or ectodomain
[1] = protein concentration 0.0225 µM
[2] = protein concentration 0.01125 µM
[3] = protein concentration 0.1125 µM
[4] = protein concentration 0.03125 µM
[5] = protein concentration 0.3125 µM
[6] = protein concentration 0.00828571 µM
[7] = protein concentration 0.0828571 µM
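Further: secreted proteins added to cultured cells, EdU pulse at the end, nuclei found by Hoechst imaging, EdU status from nuclear versus surrounding ring intensity ratio, PBS as neutral control.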

Sequence	percentage of EdU-negative (hTERT-HMEC; [1])	percentage of EdU-negative (hTERT-HMEC; protein concentration 0.225 µM)	percentage of EdU-negative (MCF7; [1])	percentage of EdU-negative (MCF7; protein concentration 0.225 µM)	further results
MGSGPRGALSLLLLLLAPPSRPAAGCPAPCSCAGTLVDCGRRGLTWASLPTAFPVDTTELVLTGNNLTALPPGLLDALPALRTAHLGANPWRCDCRLVPLRAWLAGRPERAPYRDLRCVAPPALRGRLLPYLAEDELRAACAPGPLCWGALAAQLALLGLGLLHALLLVLLLCRLRRLRARARARAAARLSLTDPLVAERAGTDES	5.41 ± 0.22%	6.21 ± 0.79%	23.5 ± 3%	27.189 ± 0.018%	–
MGSGRRALSAVPAVLLVLTLPGLPVWAQNDTEPIVLEGKCLVVCDSNPATDSKGSSSSPLGISVRAANSKVAFSAVRSTNHEPSEMSNKTRIIYFDQILVNVGNFFTLESVFVAPRKGIYSFSFHVIKVYQSQTIQVNLMLNGKPVISAFAGDKDVTREAATNGVLLYLDKEDKVYLKLEKGNLVGGWQYSTFSGFLVFPL [Q9NTU7]	5.12 ± 0.27%	4.5 ± 0.36%	23.4 ± 2%	25.2 ± 2.2%	–
MGSPRSALSCLLLHLLVLCLQAQEGPGRGPALGRELASLFRAGREPQGVSQQHVREQSLVTDQLSRRLIRTYQLYSRTSGKHVQVLANKRINAMAEDGDPFAKLIVETDTFGSRVRVRGAETGLYICMNKKGKLIAKSNGKGKDCVFTEIVLENNYTALQNAKYEGWYMAFTRKGRPRKGSKTRQHQREVHFMKRLPRGHHTTEQSLRFEFLNYPPFTRSLRGSQRTWAPEPR	–	–	–	–	percentage of EdU-negative (hTERT-HMEC; [2]): 5.64 ± 0.65%; percentage of EdU-negative (hTERT-HMEC; [3]): 11 ± 1.7%; percentage of EdU-negative (MCF7; [2]): 25.1 ± 1.4%; percentage of EdU-negative (MCF7; [3]): 25.58 ± 0.037%
MGSRGQGLLLAYCLLLAFASGLVLSRVPHVQGEQQEWEGTEELPSPPDHAERAEEQHEKYRPSQDQGLPASRCLRCCDPGTSMYPATAVPQINITILKGEKGDRGDRGLQGKYGKTGSAGARGHTGPKGQKGSMGAPGERCKSHYAAFSVGRKKPMHSNHYYQTVIFDTEFVNLYDHFNMFTGKFYCYVPGLYFFSLNVHTWNQKETYLHIMKNEEEVVILFAQVGDRSIMQSQSLMLELREQDQVWVRLYKGERENAIFSEELDTYITFSGYLVKHATEP [Q9BXJ1]	4.31 ± 0.1%	4.49 ± 0.49%	24.69 ± 0.17%	23.7 ± 2.1%	–
MGSSSFLVLMVSLVLVTLVAVEGVKEGIEKAGVCPADNVRCFKSDPPQCHTDQDCLGERKCCYLHCGFKCVIPVKELEEGGNKDEDVSRPYPEPGWEAKCPGSSSTRCPQK [Q8WWY7]	–	–	–	–	percentage of EdU-negative (hTERT-HMEC; [4]): 5.3 ± 0.5%; percentage of EdU-negative (hTERT-HMEC; [5]): 5.28 ± 0.67%; percentage of EdU-negative (MCF7; [4]): 26.5 ± 3.1%; percentage of EdU-negative (MCF7; [5]): 24 ± 2.8%
MGTATRRKPHLLLVAAVALVSSSAWSSALGSQTTFGPVFEDQPLSVLFPEESTEEQVLLACRARASPPATYRWKMNGTEMKLEPGSRHQLVGGNLVIMNPTKAQDAGVYQCLASNPVGTVVSREAILRFGFLQEFSKEERDPVKAHEGWGVMLPCNPPAHYPGLSYRWLLNEFPNFIPTDGRHFVSQTTGNLYIARTNASDLGNYSCLATSHMDFSTKSVFSKFAQLNLAAEDTRLFAPSIKARFPAETYALVGQQVTLECFAFGNPVPRIKWRKVDGSLSPQWTTAEPTLQIPSVSFEDEGTYECEAENSKGRDTVQGRIIVQAQPEWLKVISDTEADIGSNLRWGCAAAGKPRPTVRWLRNGEPLASQNRVEVLAGDLRFSKLSLEDSGMYQCVAENKHGTIYASAELAVQALAPDFRLNPVRRLIPAARGGEILIPCQPRAAPKAVVLWSKGTEILVNSSRVTVTPDGTLIIRNISRSDEGKYTCFAENFMGKANSTGILSVRDATKITLAPSSADINLGDNLTLQCHASHDPTMDLTFTWTLDDFPIDFDKPGGHYRRTNVKETIGDLTILNAQLRHGGKYTCMAQTVVDSASKEATVLVRGPPGPPGGVVVRDIGDTTIQLSWSRGFDNHSPIAKYTLQARTPPAGKWKQVRTNPANIEGNAETAQVLGLTPWMDYEFRVIASNILGTGEPSGPSSKIRTREAAPSVAPSGLSGGGGAPGELIVNWTPMSREYQNGDGFGYLLSFRRQGSTHWQTARVPGADAQYFVYSNESVRPYTPFEVKIRSYNRRGDGPESLTALVYSAEEEPRVAPTKVWAKGVSSSEMNVTWEPVQQDMNGILLGYEIRYWKAGDKEAAADRVRTAGLDTSARVSGLHPNTKYHVTVRAYNRAGTGPASPSANATTMKPPPRRPPGNISWTFSSSSLSIKWDPVVPFRNESAVTGYKMLYQNDLHLTPTLHLTGKNWIEIPVPEDIGHALVQIRTTGPGGDGIPAEVHIVRNGGTSMMVENMAVRPAPHPGTVISHSVAMLILIGSLEL	–	–	–	–	percentage of EdU-negative (hTERT-HMEC; [6]): 5.61 ± 0.96%; percentage of EdU-negative (hTERT-HMEC; [7]): 5.98 ± 2%; percentage of EdU-negative (MCF7; [6]): 24.5 ± 3%; percentage of EdU-negative (MCF7; [7]): 25.1 ± 0.57%
MGTKAQVERKLLCLFILAILLCSLALGSVTVHSSEPEVRIPENNPVKLSCAYSGFSSPRVEWKFDQGDTTRLVCYNNKITASYEDRVTFLPTGITFKSVTREDTGTYTCMVSEEGGNSYGEVKVKLIVLVPPSKPTVNIPSSATIGNRAVLTCSEQDGSPPSEYTWFKDGIVMPTNPKSTRAFSNSSYVLNPTTGELVFDPLSASDTGEYSCEARNGYGTPMTSNAVRMEAVERNVGVIVAAVLVTLILLGILVFGIWFAYSRGHFDRTKKGTSSKKVIYSQPSARSEGEFKQTSSFLV [Q9Y624]	4.79 ± 0.22%	5.1 ± 1.2%	24.4 ± 0.49%	25.6 ± 5.5%	–
